Data reported in US20170095575A1 (BIOMED VALLEY DISCOVERIES, published 2017).
Positions count from the first letter of the chain named.

B1: M830 anti-TEM8 fragment antigen-binding (Fab) (Fab, V domains shown)
VH: EVQLVESGGGVVQPGRSVRLSCAASGFTFSTYTMHWVRQAPGKGLEWVAIISNDGSNKYYADPVRGRFTISRDNSKNTLYLQMNSLRAEDTAVYYCVRGSSWYRGNWFDPWGQGTLVTVSS
VL: DIQMTQSPSSLSASVGDRVTIACRASQTISRYLNWYQQKPGKAPKLLIYAASSLQSGVSSRFSGSGSGTEFTLTISSLQPEDFATYFCQQTYSPPITFGQGTRLEIKR
notes: also called M830 Fab
B2: M825 anti-TEM8 fragment antigen-binding (Fab) (Fab, V domains shown)
VH: QVQLVQSGAEVKKPGTSVKVSCKVPGYTFSSYAISWVRQAPGQGLEWMGGIIPIFGTTNYAQKFQGRVTITGEESTSTVYMELSSLRSEDTAVYYCARDTDYMFDYWGQGTLVTVSS
VL: SSELTQDPVVSVALGETVSITCQGDNLRDFYASWYQQKPGQAPLLVMYGKNRRPSGIPDRFSGSTSGNTLSLTITGAQAEDEADYYCSSRDNSKHVVFGGGTKVTVL
notes: also called M825 Fab

What was measured:
mTEM8-Fc = biological target: T1, mTEM8-Fc (UniProt Q9CZ52 31-319, limits assumed); assay: Biacore affinity measurement of Fab
T1 construct: not shown: Fc part
T1 sequence (looked up): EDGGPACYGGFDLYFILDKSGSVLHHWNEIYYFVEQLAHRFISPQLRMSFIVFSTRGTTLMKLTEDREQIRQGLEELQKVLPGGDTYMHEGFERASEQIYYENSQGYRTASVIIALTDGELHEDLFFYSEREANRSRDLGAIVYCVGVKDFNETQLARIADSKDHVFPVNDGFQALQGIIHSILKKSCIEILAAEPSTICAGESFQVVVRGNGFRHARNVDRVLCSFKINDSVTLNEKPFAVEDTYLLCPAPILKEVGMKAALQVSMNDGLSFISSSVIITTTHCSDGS

hTEM8-AP = biological target: T2, hTEM8-AP (Homo sapiens, UniProt Q9H6X2 33-321); assay: Biacore affinity measurement of Fab
T2 sequence: T1 sequence (looked up) with R40K, S104R, A241S

Row | Binder | Kd (mTEM8-Fc) [nM] | koff (mTEM8-Fc) [s⁻¹] | kon (mTEM8-Fc) [M⁻¹ s⁻¹] | Kd (hTEM8-AP) [nM] | koff (hTEM8-AP) [s⁻¹] | kon (hTEM8-AP) [M⁻¹ s⁻¹]
1 | B1 | 3.74 | 0.0029 | 775000 | 1.57 | 0.000953 | 607000
2 | B2 | 0.0526 | 8.94e-05 | 1.7e+06 | 0.0591 | 0.00018 | 3.05e+06
